According to paper PMC9482650, “Quantitative fragmentomics allow affinity mapping of interactomes” (Nature Communications, 2022):

T1: DFNB31_2, Q9P202
T1 sequence (Q9P202 274-371, limits assumed, looked up): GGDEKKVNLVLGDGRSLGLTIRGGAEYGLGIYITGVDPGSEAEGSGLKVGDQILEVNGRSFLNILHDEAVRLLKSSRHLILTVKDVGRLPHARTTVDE

T2: NHERF3_1, Q5T2W1
T2 sequence (Q5T2W1 4-100, limits assumed, looked up): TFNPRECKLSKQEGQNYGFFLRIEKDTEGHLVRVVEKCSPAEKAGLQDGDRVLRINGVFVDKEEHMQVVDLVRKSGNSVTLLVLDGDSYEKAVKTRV

T3: HTRA4, P83105
T3 sequence (P83105 378-476, limits assumed, looked up): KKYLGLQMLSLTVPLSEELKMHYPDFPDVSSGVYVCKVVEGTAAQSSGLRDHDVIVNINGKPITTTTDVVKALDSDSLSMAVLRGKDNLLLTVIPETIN

T4: MPDZ_10, O75970
T4 sequence (O75970 1624-1722, limits assumed, looked up): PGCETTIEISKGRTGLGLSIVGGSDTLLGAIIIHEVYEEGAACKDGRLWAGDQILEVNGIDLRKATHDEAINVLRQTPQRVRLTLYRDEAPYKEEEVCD

T5: RAPGEF6, Q8TEU7
T5 sequence (Q8TEU7 525-625, limits assumed, looked up): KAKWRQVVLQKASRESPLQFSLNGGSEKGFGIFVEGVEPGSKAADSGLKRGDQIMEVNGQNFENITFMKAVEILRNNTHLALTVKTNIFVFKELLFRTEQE

T6: DVL3, Q92997
T6 sequence (Q92997 244-331, limits assumed, looked up): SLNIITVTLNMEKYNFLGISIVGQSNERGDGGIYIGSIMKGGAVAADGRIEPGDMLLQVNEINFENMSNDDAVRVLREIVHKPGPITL

T7: LIN7B, Q9HAP6
T7 sequence (Q9HAP6 88-185, limits assumed, looked up): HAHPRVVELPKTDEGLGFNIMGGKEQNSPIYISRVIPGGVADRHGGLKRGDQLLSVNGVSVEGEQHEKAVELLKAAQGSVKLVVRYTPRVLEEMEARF

T8: SNTA1, Q13424
T8 sequence (Q13424 82-180, limits assumed, looked up): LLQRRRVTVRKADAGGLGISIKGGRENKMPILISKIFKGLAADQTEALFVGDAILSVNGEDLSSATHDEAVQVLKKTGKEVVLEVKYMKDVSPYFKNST

T9: SNTG1, Q9NSN8
T9 sequence (Q9NSN8 52-150, limits assumed, looked up): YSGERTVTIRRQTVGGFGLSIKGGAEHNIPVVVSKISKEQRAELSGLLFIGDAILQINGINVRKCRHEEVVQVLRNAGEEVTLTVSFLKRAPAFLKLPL

T10: SNTG2, Q9NY99
T10 sequence (Q9NY99 68-166, limits assumed, looked up): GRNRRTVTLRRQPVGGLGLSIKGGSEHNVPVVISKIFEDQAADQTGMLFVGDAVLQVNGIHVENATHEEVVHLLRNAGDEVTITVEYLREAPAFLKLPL

T11: TIAM2, Q8IVF5
T11 sequence (Q8IVF5 885-986, limits assumed, looked up): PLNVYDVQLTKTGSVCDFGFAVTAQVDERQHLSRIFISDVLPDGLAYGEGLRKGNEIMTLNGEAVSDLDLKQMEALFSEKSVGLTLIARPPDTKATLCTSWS

T12: DFNB31_1, Q9P202
T12 sequence (Q9P202 135-233, limits assumed, looked up): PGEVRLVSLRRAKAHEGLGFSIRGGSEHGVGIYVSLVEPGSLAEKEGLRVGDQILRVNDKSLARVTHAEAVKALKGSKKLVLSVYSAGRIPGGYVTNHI

T13: DLG3_3, Q92796
T13 sequence (Q92796 374-475, limits assumed, looked up): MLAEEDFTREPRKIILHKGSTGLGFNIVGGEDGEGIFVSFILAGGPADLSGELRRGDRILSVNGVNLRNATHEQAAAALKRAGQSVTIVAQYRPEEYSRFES

B1: NPSR1, Q6W5P4 (peptide)
chain: MQILSKPEFI
B2: FCHSD2, O94868 (peptide)
chain: KIEDVEITLV

Target: T1, DFNB31_2, Q9P202
Assay: holdup assay
Design: key: below the threshold = too weak to quantify, mostly under pKd 3.1 to 4
Conditions: plain residues with an end cap or a label only (N-terminal biotin on a linker: ado-ado)

Row | pKd | Binder
1 | below the threshold | B1
2 | below the threshold | B2

Target: T2, NHERF3_1, Q5T2W1
Assay: holdup assay
Design: key: below the threshold = too weak to quantify, mostly under pKd 3.1 to 4
Conditions: plain residues with an end cap or a label only (N-terminal biotin on a linker: ado-ado)

Row | pKd | Binder
3 | below the threshold | B1
4 | 4.13 | B2

Target: T3, HTRA4, P83105
Assay: holdup assay
Design: key: below the threshold = too weak to quantify, mostly under pKd 3.1 to 4
Conditions: plain residues with an end cap or a label only (N-terminal biotin on a linker: ado-ado)

Row | pKd | Binder
5 | 4.38 | B1
6 | 4.54 | B2

Target: PDLIM1, O00151
Sequence (O00151 1-87): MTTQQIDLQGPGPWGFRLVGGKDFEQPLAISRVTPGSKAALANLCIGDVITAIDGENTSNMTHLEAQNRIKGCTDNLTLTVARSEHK
Assay: holdup assay
Design: key: below the threshold = too weak to quantify, mostly under pKd 3.1 to 4
Conditions: plain residues with an end cap or a label only (N-terminal biotin on a linker: ado-ado)

Row | pKd | Binder
7 | below the threshold | B1
8 | below the threshold | B2

Target: T4, MPDZ_10, O75970
Assay: holdup assay
Design: key: below the threshold = too weak to quantify, mostly under pKd 3.1 to 4
Conditions: plain residues with an end cap or a label only (N-terminal biotin on a linker: ado-ado)

Row | pKd | Binder
9 | below the threshold | B1
10 | 3.49 | B2

Target: T5, RAPGEF6, Q8TEU7
Assay: holdup assay
Design: key: below the threshold = too weak to quantify, mostly under pKd 3.1 to 4
Conditions: plain residues with an end cap or a label only (N-terminal biotin on a linker: ado-ado)

Row | pKd | Binder
11 | below the threshold | B1
12 | below the threshold | B2

Target: T6, DVL3, Q92997
Assay: holdup assay
Design: key: below the threshold = too weak to quantify, mostly under pKd 3.1 to 4
Conditions: plain residues with an end cap or a label only (N-terminal biotin on a linker: ado-ado)

Row | pKd | Binder
13 | 3.61 | B1
14 | below the threshold | B2

Target: NOS1, P29475
Sequence (P29475 9-101): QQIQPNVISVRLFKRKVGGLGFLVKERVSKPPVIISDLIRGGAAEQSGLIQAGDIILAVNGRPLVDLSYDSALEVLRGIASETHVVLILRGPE
Assay: holdup assay
Design: key: below the threshold = too weak to quantify, mostly under pKd 3.1 to 4
Conditions: plain residues with an end cap or a label only (N-terminal biotin on a linker: ado-ado)

Row | pKd | Binder
15 | 3.84 | B1
16 | 3.8 | B2

Target: IL16_4, Q14005
Sequence (Q14005 1229-1329): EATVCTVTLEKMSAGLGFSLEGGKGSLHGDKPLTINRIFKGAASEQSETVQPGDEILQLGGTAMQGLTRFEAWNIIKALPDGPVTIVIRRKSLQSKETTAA
Assay: holdup assay
Design: key: below the threshold = too weak to quantify, mostly under pKd 3.1 to 4
Conditions: plain residues with an end cap or a label only (N-terminal biotin on a linker: ado-ado)

Row | pKd | Binder
17 | 3.7 | B1
18 | below the threshold | B2

Target: T7, LIN7B, Q9HAP6
Assay: holdup assay
Design: key: below the threshold = too weak to quantify, mostly under pKd 3.1 to 4
Conditions: plain residues with an end cap or a label only (N-terminal biotin on a linker: ado-ado)

Row | pKd | Binder
19 | 3.81 | B1
20 | below the threshold | B2

Target: T8, SNTA1, Q13424
Assay: holdup assay
Design: key: below the threshold = too weak to quantify, mostly under pKd 3.1 to 4
Conditions: plain residues with an end cap or a label only (N-terminal biotin on a linker: ado-ado)

Row | pKd | Binder
21 | below the threshold | B1
22 | 3.76 | B2

Target: IL16_1, Q14005
Sequence (Q14005 210-306): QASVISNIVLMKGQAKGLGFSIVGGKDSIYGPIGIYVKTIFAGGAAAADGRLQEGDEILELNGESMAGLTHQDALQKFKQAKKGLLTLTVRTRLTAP
Assay: holdup assay
Design: key: below the threshold = too weak to quantify, mostly under pKd 3.1 to 4
Conditions: plain residues with an end cap or a label only (N-terminal biotin on a linker: ado-ado)

Row | pKd | Binder
23 | below the threshold | B1
24 | 3.48 | B2

Target: T9, SNTG1, Q9NSN8
Assay: holdup assay
Design: key: below the threshold = too weak to quantify, mostly under pKd 3.1 to 4
Conditions: plain residues with an end cap or a label only (N-terminal biotin on a linker: ado-ado)

Row | pKd | Binder
25 | below the threshold | B1
26 | 4.14 | B2

Target: GORASP2, Q9H8Y8
Assay: holdup assay
Design: key: below the threshold = too weak to quantify, mostly under pKd 3.1 to 4
Conditions: plain residues with an end cap or a label only (N-terminal biotin on a linker: ado-ado)

Row | pKd | Binder
27 | 4.61 | B1
28 | 4.01 | B2

Target: SCRIB_1, Q14160
Sequence (Q14160 718-814): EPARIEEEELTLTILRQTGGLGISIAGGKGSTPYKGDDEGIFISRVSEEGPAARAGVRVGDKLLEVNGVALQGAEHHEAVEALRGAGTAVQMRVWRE
Assay: holdup assay
Design: key: below the threshold = too weak to quantify, mostly under pKd 3.1 to 4
Conditions: plain residues with an end cap or a label only (N-terminal biotin on a linker: ado-ado)

Row | pKd | Binder
29 | below the threshold | B1
30 | 3.8 | B2

Target: T10, SNTG2, Q9NY99
Assay: holdup assay
Design: key: below the threshold = too weak to quantify, mostly under pKd 3.1 to 4
Conditions: plain residues with an end cap or a label only (N-terminal biotin on a linker: ado-ado)

Row | pKd | Binder
31 | below the threshold | B1
32 | 3.58 | B2

Target: DLG5_1, Q8TDM6
Sequence (Q8TDM6 617-713): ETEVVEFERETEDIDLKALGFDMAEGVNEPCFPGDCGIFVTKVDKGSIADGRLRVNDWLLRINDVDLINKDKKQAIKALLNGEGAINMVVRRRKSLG
Assay: holdup assay
Design: key: below the threshold = too weak to quantify, mostly under pKd 3.1 to 4
Conditions: plain residues with an end cap or a label only (N-terminal biotin on a linker: ado-ado)

Row | pKd | Binder
33 | below the threshold | B1
34 | 3.52 | B2

Target: PARD3_3, Q8TEW0
Sequence (Q8TEW0 582-685): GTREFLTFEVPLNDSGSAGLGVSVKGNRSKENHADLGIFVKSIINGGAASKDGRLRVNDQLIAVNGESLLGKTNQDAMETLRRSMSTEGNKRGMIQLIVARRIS
Assay: holdup assay
Design: key: below the threshold = too weak to quantify, mostly under pKd 3.1 to 4
Conditions: plain residues with an end cap or a label only (N-terminal biotin on a linker: ado-ado)

Row | pKd | Binder
35 | 3.98 | B1
36 | 3.99 | B2

Target: GRIP2_5, Q9C0E4
Sequence (Q9C0E4 544-642): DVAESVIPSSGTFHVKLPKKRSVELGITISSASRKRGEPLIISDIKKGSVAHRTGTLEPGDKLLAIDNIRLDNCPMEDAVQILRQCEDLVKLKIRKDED
Assay: holdup assay
Design: key: below the threshold = too weak to quantify, mostly under pKd 3.1 to 4
Conditions: plain residues with an end cap or a label only (N-terminal biotin on a linker: ado-ado)

Row | pKd | Binder
37 | below the threshold | B1
38 | below the threshold | B2

Target: T11, TIAM2, Q8IVF5
Assay: holdup assay
Design: key: below the threshold = too weak to quantify, mostly under pKd 3.1 to 4
Conditions: plain residues with an end cap or a label only (N-terminal biotin on a linker: ado-ado)

Row | pKd | Binder
39 | 4.05 | B1
40 | below the threshold | B2

Target: T12, DFNB31_1, Q9P202
Assay: holdup assay
Design: key: below the threshold = too weak to quantify, mostly under pKd 3.1 to 4
Conditions: plain residues with an end cap or a label only (N-terminal biotin on a linker: ado-ado)

Row | pKd | Binder
41 | below the threshold | B1
42 | 3.48 | B2

Target: FRMPD2_3, Q68DX3
Sequence (Q68DX3 1073-1166): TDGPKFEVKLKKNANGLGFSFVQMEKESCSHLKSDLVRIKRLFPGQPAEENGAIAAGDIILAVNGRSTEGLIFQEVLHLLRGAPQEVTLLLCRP
Assay: holdup assay
Design: key: below the threshold = too weak to quantify, mostly under pKd 3.1 to 4
Conditions: plain residues with an end cap or a label only (N-terminal biotin on a linker: ado-ado)

Row | pKd | Binder
43 | below the threshold | B1
44 | below the threshold | B2

Target: T13, DLG3_3, Q92796
Assay: holdup assay
Design: key: below the threshold = too weak to quantify, mostly under pKd 3.1 to 4
Conditions: plain residues with an end cap or a label only (N-terminal biotin on a linker: ado-ado)

Row | pKd | Binder
45 | below the threshold | B1
46 | below the threshold | B2

Target: LIMK2, P53671
Sequence (P53671 143-248): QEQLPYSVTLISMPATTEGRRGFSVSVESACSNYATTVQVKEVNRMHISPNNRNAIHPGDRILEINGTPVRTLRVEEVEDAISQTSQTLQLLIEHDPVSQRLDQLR
Assay: holdup assay
Design: key: below the threshold = too weak to quantify, mostly under pKd 3.1 to 4
Conditions: plain residues with an end cap or a label only (N-terminal biotin on a linker: ado-ado)

Row | pKd | Binder
47 | below the threshold | B1
48 | below the threshold | B2

Target: Inadl_8, Q8NI35
Sequence (Q8NI35 1425-1530): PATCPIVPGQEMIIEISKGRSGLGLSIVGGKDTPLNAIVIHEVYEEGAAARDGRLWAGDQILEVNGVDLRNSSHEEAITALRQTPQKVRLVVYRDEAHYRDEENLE
Assay: holdup assay
Design: key: below the threshold = too weak to quantify, mostly under pKd 3.1 to 4
Conditions: plain residues with an end cap or a label only (N-terminal biotin on a linker: ado-ado)

Row | pKd | Binder
49 | below the threshold | B1
50 | 3.99 | B2
